The results in this text go back to publication doi:10.1101/2020.12.15.422910.

The stoichiometry N is the number of molecules, sites or subunits per partner or assembly.

In the assay the target is OsBOR3_(Δ1-642) (Oryza sativa). In words: cryo-EM structure.

In the case of OsBOR3_(Δ1-642) (domain or fragment), the stoichiometry N amounted to 2.
